Consider one molecule from paper doi:10.1101/2023.12.18.572191, “Broadly neutralizing antibody induction by non-stabilized SARS-CoV-2 Spike mRNA vaccination in nonhuman primates” (bioRxiv, 2023).

This test concerns the target T1, SARS-CoV-2 S HexaPro Protein (SARS-CoV-2, Wuhan-Hu-1, stabilised).
T1 construct: also called Hexapro spike; SARS-CoV-2 spike ectodomain
Description: cryo-EM structure. Particulars: both partners purified.

B1: DH1338 antigen-binding fragment (Fab) (Fab, V domains shown)
VH: QLQLQESGPGLVKPSETLSLTCAVSGGSISRKNWSWIRQPPGKGLGWIGRISGSGGSTDYNPSLKSRVTISTDTSKNQFSLKLSSVTAADTAVYYCARVAYYEDDYGYYYTEGAFDFWGQGLRVTVSS
VL: EIVMTQSPATLSLSPGERATLSCRTSQSVSSYVAWYQQKPEQTPRLLIYDASSRATGIPDRFSGGGSGTDFTLTISSLEPEDFAVYYCQQYSNWPWTFGQGTKVEIK
notes: also called DH1338 Fab
As usually defined, the stoichiometry N is the number of molecules, sites or subunits per partner or assembly. In the case of B1, the “stoichiometry N” value came to 3.
